Test results from patent publication US20220242962A1 (APTEVO RESEARCH AND DEVELOPMENT, published 2022).

T1: Full-length Human OX40 (human, UniProt P43489 29-277)
T1 sequence: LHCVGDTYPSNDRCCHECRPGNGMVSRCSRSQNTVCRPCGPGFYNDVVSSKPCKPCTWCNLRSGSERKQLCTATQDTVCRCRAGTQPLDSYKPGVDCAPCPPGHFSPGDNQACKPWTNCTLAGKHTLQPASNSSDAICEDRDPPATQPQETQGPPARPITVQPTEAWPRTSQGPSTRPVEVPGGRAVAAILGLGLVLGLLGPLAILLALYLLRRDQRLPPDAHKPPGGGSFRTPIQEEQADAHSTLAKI

T2: Fc gamma receptor RIIB/C (human, UniProt P31994 46-217)
T2 construct: soluble SPR analyte
T2 sequence (looked up): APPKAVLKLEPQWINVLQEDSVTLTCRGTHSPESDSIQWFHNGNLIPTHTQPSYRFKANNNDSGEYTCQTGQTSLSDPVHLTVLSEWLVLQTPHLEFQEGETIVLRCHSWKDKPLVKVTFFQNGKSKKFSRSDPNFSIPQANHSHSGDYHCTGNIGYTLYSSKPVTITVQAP

T3: Cyno 4-1BB ECD-AFH (cynomolgus monkey)
T3 construct: entry includes the tags; also called FOB004; Cyno CD137 ECD-avi-flag-his
T3 chain: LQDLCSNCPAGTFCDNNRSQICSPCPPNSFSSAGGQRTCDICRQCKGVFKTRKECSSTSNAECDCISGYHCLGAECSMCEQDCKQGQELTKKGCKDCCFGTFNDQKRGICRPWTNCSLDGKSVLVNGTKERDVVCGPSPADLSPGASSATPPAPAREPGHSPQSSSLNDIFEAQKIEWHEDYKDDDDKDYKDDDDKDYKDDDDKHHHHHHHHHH

T4: Human OX40 ECD-AFH (human)
T4 construct: ECD'; entry includes the C-terminal tags; also called OXF003; Human OX40 ECD-avi-flag-his
T4 chain: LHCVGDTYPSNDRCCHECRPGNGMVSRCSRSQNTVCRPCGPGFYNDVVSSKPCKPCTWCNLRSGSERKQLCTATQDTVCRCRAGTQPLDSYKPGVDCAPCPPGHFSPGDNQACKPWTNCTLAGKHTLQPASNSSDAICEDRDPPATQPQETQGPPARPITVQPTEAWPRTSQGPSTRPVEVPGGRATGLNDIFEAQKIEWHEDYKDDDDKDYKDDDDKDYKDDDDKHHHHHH

T5: Cyno OX40-AFH (cynomolgus monkey)
T5 construct: entry includes the tags; also called OXF005; cyno OX40 ECD
T5 chain: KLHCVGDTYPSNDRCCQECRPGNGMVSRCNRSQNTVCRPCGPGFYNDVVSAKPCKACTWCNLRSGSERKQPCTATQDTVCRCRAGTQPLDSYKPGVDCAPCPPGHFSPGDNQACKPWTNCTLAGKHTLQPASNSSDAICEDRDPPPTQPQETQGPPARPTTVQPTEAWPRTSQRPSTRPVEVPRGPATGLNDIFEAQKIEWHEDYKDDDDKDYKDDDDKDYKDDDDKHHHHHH


How the values were obtained:
Full-length Human OX40 = target: T1, Full-length Human OX40; assay: cell-based or functional assay
Full-length Human 4-1BB = Full-length Human 4-1BB (human, UniProt Q07011 24-255); assay: cell-based or functional assay
Fc gamma receptor RIIB/C = target: T2, Fc gamma receptor RIIB/C; assay: SPR, construct immobilized, receptor injected at 2 uM
Procedure: Fcγ receptor binding to bispecific proteins was measured by Surface Plasmon Resonance on a Biacore 8K instrument at room temperature. Bispecific proteins with modified Fc regions to reduce binding to Fcγ receptors were directly immobilized on the surface of a CM5 sensor chip to a surface density of 4000 RU. A bispecific ADAPTIR™ protein with a wild type Fc was similarly immobilized to the surface as a positive control and used as a comparator to evaluate the reduction in binding resulting from changes incorporated into the Fc region amino acid sequence. Fcγ receptors (purchased from R&D Systems) were diluted to either 100 nM (FcγRI) or 2 μM (all other Fcγ receptors) in HBS-EP+ buffer before injecting over the surface of the prepared sensor chip at 30 μL/min for 60 seconds. Maximum RU values during association phase of each injection were used to compare the extent of binding of the modified Fc to wild type value and are reported in Table 17 below.

Cyno 4-1BB ECD-AFH = target: T3, Cyno 4-1BB ECD-AFH; assay: SPR (Biacore 8K), construct captured, monovalent ECD
Human OX40 ECD-AFH = target: T4, Human OX40 ECD-AFH; assay: as above
Human 4-1BB ECD-AFH = target: T6, Human 4-1BB ECD-AFH (human); assay: as above
T6 construct: entry includes the tags; also called FOB003; HUMAN CD137 ECD-AVI-FLAG-HIS

Cyno OX40-AFH = target: T5, Cyno OX40-AFH; assay: as above
For 4-1BB Reporter Assay Max induction in this document: unit not given here.
For OX40 Reporter Assay Max induction in this document: unit not given here.

Sequence of Full-length Human 4-1BB (Q07011 24-255): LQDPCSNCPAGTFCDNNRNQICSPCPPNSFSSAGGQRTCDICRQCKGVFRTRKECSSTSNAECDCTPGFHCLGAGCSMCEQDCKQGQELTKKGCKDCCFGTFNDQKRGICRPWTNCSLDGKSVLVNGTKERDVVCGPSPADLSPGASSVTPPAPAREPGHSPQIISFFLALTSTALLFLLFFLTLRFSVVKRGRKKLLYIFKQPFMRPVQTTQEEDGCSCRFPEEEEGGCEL

Row | Binder | OX40 Reporter Assay EC50 (Full-length Human OX40) | OX40 Reporter Assay Max induction (Full-length Human OX40) | 4-1BB Reporter Assay EC50 (Full-length Human 4-1BB) | 4-1BB Reporter Assay Max induction (Full-length Human 4-1BB) | Max RU value during association (Fc gamma receptor RIIB/C) | Kd (Cyno 4-1BB ECD-AFH) | koff (Cyno 4-1BB ECD-AFH) | kon (Cyno 4-1BB ECD-AFH) | Kd (Human OX40 ECD-AFH) | koff (Human OX40 ECD-AFH) | kon (Human OX40 ECD-AFH) | Kd (Human 4-1BB ECD-AFH) | koff (Human 4-1BB ECD-AFH) | kon (Human 4-1BB ECD-AFH) | Kd (Cyno OX40-AFH) | koff (Cyno OX40-AFH) | kon (Cyno OX40-AFH)
1 | FXX01111 (bispecific antibody, ADAPTIR anti-4-1BB x anti-OX40, pI variant; PAA (del) Fc) EVQLVQSGAEVKKPGASVKVSCKASGYTFTSYWMNWVRQAPGQGLEWMGNIYPSGGSTNYAQKFQGRVTMTVDTSTSTVYMELSSLRSEDTAVYYCASFSDGYYAYAMDYWGQGTLVTVSSGGGGSGGGGSGGGGSGGGGSEIVMTQSPATLSLSPGERATLSCRASQSVSSYLNWYQQKPGQAPRLLIYYASRRHTGIPARFSGSGSGTDFTLTISSLQPEDFAVYYCQQGYNLPYTFGQGTKVEIKEPKSSDKTHTCPPCPAPPAAAPSVFLFPPKPKDTLMISRTPEVTCVVVDVSHEDPEVKFNWYVDGVEVHNAKTKPREEQYNSTYRVVSVLTVLHQDWLNGKEYKCAVSNKALPAPIEKTISKAKGQPREPQVYTLPPSRDELTKNQVSLTCLVKGFYPSDIAVEWESNGQPENNYKTTPPVLDSDGSFFLYSKLTVDKSRWQQGNVFSCSVMHEALHNHYTQKSLSLSPGGGGSPSSYVLTQPPSVSVAPGQTARITCGGNNIGSKSVNWFQQKPGQAPVLVVYDDSGRPSGVPNRFSGSTSGNTATLTISRVEAGDEADYYCQVWDSSSDHVVFGGGTKLTVLGGGGSGGGGSGGGGSGGGGSQVQLVESGGGVVQPGRSLRLSCAASGFTLSYYGMHWVRQAPGKGLEWVAAISHDGSDKYYADSVKGRFTISRDNSKNTLYLQMNSLRAEDTAVYYCSNDQFDPWGQGTLVTVSSR | 0.017 nM | 6.09e+06 | 0.019 nM | 1.43e+06 | 20 RU | 81 nM | 0.008 s⁻¹ | 99000 M⁻¹ s⁻¹ | < 1 nM | 0.00038 s⁻¹ | 930000 M⁻¹ s⁻¹ | 17 nM | 0.0045 s⁻¹ | 270000 M⁻¹ s⁻¹ | < 1 nM | 0.00029 s⁻¹ | 1.1e+06 M⁻¹ s⁻¹
2 | FXX01102 (bispecific antibody, ADAPTIR anti-4-1BB (HL) x anti-OX40 with Q17K and T86R; PAA (del) Fc; also called FX01102) EVQLVQSGAEVKKPGASVKVSCKASGYTFTSYWMNWVRQAPGQGLEWMGNIYPSGGSTNYAQKFQGRVTMTVDTSTSTVYMELSSLRSEDTAVYYCASFSDGYYAYAMDYWGQGTLVTVSSGGGGSGGGGSGGGGSGGGGSEIVMTQSPATLSLSPGERATLSCRASQSVSSYLNWYQQKPGQAPRLLIYYASRRHTGIPARFSGSGSGTDFTLTISSLQPEDFAVYYCQQGYNLPYTFGQGTKVEIKEPKSSDKTHTCPPCPAPPAAAPSVFLFPPKPKDTLMISRTPEVTCVVVDVSHEDPEVKFNWYVDGVEVHNAKTKPREEQYNSTYRVVSVLTVLHQDWLNGKEYKCAVSNKALPAPIEKTISKAKGQPREPQVYTLPPSRDELTKNQVSLTCLVKGFYPSDIAVEWESNGQPENNYKTTPPVLDSDGSFFLYSKLTVDKSRWQQGNVFSCSVMHEALHNHYTQKSLSLSPGGGGSPSSYVLTQPPSVSVAPGKTARITCGGNNIGSKSVNWFQQKPGQAPVLVVYDDSGRPSGIPERFSGSTSGNTATLTISRVEAGDEADYYCQVWDSSSDHVVFGGGTKLTVLGGGGSGGGGSGGGGSGGGGSQVQLVESGGGVVQPGRSLRLSCAASGFTLSYYGMHWVRQAPGKGLEWVAAISHDGSDKYYADSVKGRFTISRDNSKNRLYLQMNSLRAEDTAVYYCSNDQFDPWGQGTLVTVSSR | 0.016 nM | 5.78e+06 | 0.021 nM | 1.4e+06 | 19 RU | 75 nM | 0.0074 s⁻¹ | 98000 M⁻¹ s⁻¹ | < 1 nM | 0.00025 s⁻¹ | 1e+06 M⁻¹ s⁻¹ | 16 nM | 0.0047 s⁻¹ | 290000 M⁻¹ s⁻¹ | < 1 nM | 0.00023 s⁻¹ | 1.1e+06 M⁻¹ s⁻¹
